Source: US20060269997A1 (Genentech, published 2006)
Changes are numbered by the printed parent chain. One block for each binder: values may come before it.

What was measured:
KDR (1-3) monomer [1] = molecular target: T1, KDR (1-3) monomer (UniProt P35968 20-327, limits assumed, biotin-labeled in the ELISA of Example 8); assay: competition ELISA: plate coated with VEGF (8-109), 100 pM biotin-labeled KDR(1-3), serial dilutions of the competing VEGF (Example 8)
T1 construct: domain: domains 1 to 3; Genentech reagent; also called domains 1 to 3 of KDR
Procedure: (§1) After 1 hour, the plates were washed, and the bound protein stained with streptavidin horseradish peroxidase conjugate (Pharmacia) and assayed. Affinities were estimated as IC₅₀ values: the concentration of KDR(1-3) or Flt(1-3) that blocked 50% of protein binding.

Flt-1 (1-3) monomer = molecular target: T2, Flt-1 (1-3) monomer (UniProt P17948 27-331, limits assumed, biotin-labeled in the ELISA of Example 8); assay: competition ELISA: plate coated with VEGF (8-109), 100 pM biotin-labeled Flt1(1-3), serial dilutions of the competing VEGF (Example 8)
T2 construct: domain: domains 1 to 3; Genentech reagent; also called Flt(1-3); domains 1 to 3 of Flt-1
Procedure: as §1

KDR (1-3) monomer [2] = molecular target: T1, KDR (1-3) monomer; assay: competition ELISA vs biotinylated VEGF (8-109), soluble KDR (1-3) captured by MAKD5
Procedure: Receptor binding assays were performed in 96-well immunoplates (Maxisorp, Nunc-Immunoplate, Nalge Nunc International, Rochester, N.Y.). Each well was coated with 100 μl of a solution containing 8 μg/ml of a monoclonal antibody to KDR known as MAKD5 (Genentech, South San Francisco, Calif.) in 50 mM carbonate buffer at pH 9.6 and incubated at 4° C. overnight. The supernatant was discarded, the wells were washed three times in washing buffer (0.05% Tween 20 in PBS), and the plate was blocked (150 μl per well) with block buffer (0.5% BSA, 0.01% thimerosal in PBS) at room temperature for one hour. The supernatant was discarded, and the wells were washed.
Aliquots of this mixture (100 μl) were added to the precoated microtiter wells and the plate was incubated for 1 hour at room temperature. […] The wells were then incubated with 3,3′, 5,5′-tetramethyl benzidine (0.2 gram/liter; Kirkegaard & Perry Laboratories, Gaithersburg, Md.) for about 10 minutes at room temperature. Absorbance was read at 450 nm on a Vmax plate reader (Molecular Devices, Menlo Park, Calif.).
Titration curves were fit with a four-parameter nonlinear regression curve-fitting program (KaleidaGraph, Synergy Software, Reading, Pa.).

T2 sequence (P17948 27-331 limits assumed): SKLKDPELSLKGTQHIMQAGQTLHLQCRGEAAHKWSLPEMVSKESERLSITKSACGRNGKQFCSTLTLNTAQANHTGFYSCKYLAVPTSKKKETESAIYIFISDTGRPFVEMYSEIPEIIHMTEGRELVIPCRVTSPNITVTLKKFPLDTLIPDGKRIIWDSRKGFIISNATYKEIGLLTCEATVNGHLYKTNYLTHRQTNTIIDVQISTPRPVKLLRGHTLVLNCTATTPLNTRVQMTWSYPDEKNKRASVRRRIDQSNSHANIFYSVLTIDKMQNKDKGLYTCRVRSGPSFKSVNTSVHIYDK
T1 sequence (P35968 20-327 limits assumed): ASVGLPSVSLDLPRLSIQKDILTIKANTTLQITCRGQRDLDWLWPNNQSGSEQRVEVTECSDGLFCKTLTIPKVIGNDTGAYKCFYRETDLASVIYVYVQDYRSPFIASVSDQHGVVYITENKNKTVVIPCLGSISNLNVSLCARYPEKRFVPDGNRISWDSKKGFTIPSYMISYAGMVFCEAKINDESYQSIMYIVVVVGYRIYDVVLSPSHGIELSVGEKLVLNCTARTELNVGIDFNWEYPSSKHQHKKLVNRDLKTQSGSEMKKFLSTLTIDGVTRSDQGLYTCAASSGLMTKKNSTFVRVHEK

IC50 (KDR (1-3) monomer [1]): 10 nM
IC50 (Flt-1 (1-3) monomer): 6 nM
B1: native VEGF (1-109) (ligand, human, UniProt P15692 207-315, looked up)
chain: APMAEGGGQNHHEVVKFMDVYQRSYCHPIETLVDIFQEYPDEIEYIFKPSCVPLMRCGGCCNDEGLECVPTEESNITMQIMRIKPHQGQHIGEMSFLQHNKCECRPKKD
modifications: 125I-labeled where used as tracer

IC50 (KDR (1-3) monomer [2]): 7 nM
Relative Binding Affinity (ratio to native VEGF (8-109)) (KDR (1-3) monomer [2]): 7 fold
B2: LK-VRB-19s (ligand, human, UniProt P15692-4 27-135, looked up)
chain: B1 chain with M18E, Q22R, Y25S, D63S, G65M, L66R
notes: one of the two is probably misprinted

fold reduction in binding (IC50 variant / IC50 VEGF(1-109)) (KDR (1-3) monomer [1]): 1 fold
fold reduction in binding (IC50 variant / IC50 VEGF(1-109)) (Flt-1 (1-3) monomer): 1 fold
B3: Gly 65** (ligand)
chain: B1 chain with G65A

fold reduction in binding (IC50 variant / IC50 VEGF(1-109)) (KDR (1-3) monomer [1]): 45 fold
fold reduction in binding (IC50 variant / IC50 VEGF(1-109)) (Flt-1 (1-3) monomer): 34 fold
B4: Phe 17* (ligand)
chain: B1 chain with F17A

fold reduction in binding (IC50 variant / IC50 VEGF(1-109)) (KDR (1-3) monomer [1]): 1 fold
fold reduction in binding (IC50 variant / IC50 VEGF(1-109)) (Flt-1 (1-3) monomer): 1 fold
B5: Lys 101 (ligand)
chain: B1 chain with K101A

fold reduction in binding (IC50 variant / IC50 VEGF(1-109)) (KDR (1-3) monomer [1]): 2 fold
fold reduction in binding (IC50 variant / IC50 VEGF(1-109)) (Flt-1 (1-3) monomer): 1 fold
B6: His 86** (ligand)
chain: B1 chain with H86A

fold reduction in binding (IC50 variant / IC50 VEGF(1-109)) (KDR (1-3) monomer [1]): 1 fold
fold reduction in binding (IC50 variant / IC50 VEGF(1-109)) (Flt-1 (1-3) monomer): 10 fold
B7: Leu 66** (ligand)
chain: B1 chain with L66A

fold reduction in binding (IC50 variant / IC50 VEGF(1-109)) (KDR (1-3) monomer [1]): 1 fold
fold reduction in binding (IC50 variant / IC50 VEGF(1-109)) (Flt-1 (1-3) monomer): 1 fold
B8: Glu 103 (ligand)
chain: B1 chain with E103A

fold reduction in binding (IC50 variant / IC50 VEGF(1-109)) (KDR (1-3) monomer [1]): 5 fold
fold reduction in binding (IC50 variant / IC50 VEGF(1-109)) (Flt-1 (1-3) monomer): 9 fold
B9: Met 18** (ligand)
chain: B1 chain with M18A

IC50 (KDR (1-3) monomer [2]): 0.4 nM
Relative Binding Affinity (ratio to native VEGF (8-109)) (KDR (1-3) monomer [2]): 0.4 fold
B10: LK-VRB-12s (ligand, human, UniProt P15692-4 27-135, looked up)
chain: B1 chain with M18E, Q22R, D63S, G65M, L66R

fold reduction in binding (IC50 variant / IC50 VEGF(1-109)) (KDR (1-3) monomer [1]): 96 fold
fold reduction in binding (IC50 variant / IC50 VEGF(1-109)) (Flt-1 (1-3) monomer): 4 fold
B11: Ile 46* (ligand)
chain: B1 chain with I46A

fold reduction in binding (IC50 variant / IC50 VEGF(1-109)) (KDR (1-3) monomer [1]): 1 fold
fold reduction in binding (IC50 variant / IC50 VEGF(1-109)) (Flt-1 (1-3) monomer): 1 fold
B12: Ile 91 (ligand)
chain: B1 chain with I91A

IC50 (KDR (1-3) monomer [2]): 4 nM
Relative Binding Affinity (ratio to native VEGF (8-109)) (KDR (1-3) monomer [2]): 4 fold
B13: LK-VRB-22s (ligand, human, UniProt P15692-4 27-135, looked up)
chain: B1 chain with M18E, Y21L, Q22R, Y25S, G65M

IC50 (KDR (1-3) monomer [2]): 0.6 nM
Relative Binding Affinity (ratio to native VEGF (8-109)) (KDR (1-3) monomer [2]): 0.6 fold
B14: LK-VRB-16s (ligand, human, UniProt P15692-4 27-135, looked up)
chain: B1 chain with Q22R, Y25S, D63S, G65M, L66R

fold reduction in binding (IC50 variant / IC50 VEGF(1-109)) (KDR (1-3) monomer [1]): 5 fold
fold reduction in binding (IC50 variant / IC50 VEGF(1-109)) (Flt-1 (1-3) monomer): 3 fold
B15: Phe 47** (ligand)
chain: B1 chain with F47A

IC50 (KDR (1-3) monomer [2]): 10 nM
Relative Binding Affinity (ratio to native VEGF (8-109)) (KDR (1-3) monomer [2]): 10 fold
B16: LK-VRB-24s (ligand, human, UniProt P15692-4 27-135, looked up)
chain: B1 chain with M18E, Y21L, Q22R, Y25S, D63S, G65M

fold reduction in binding (IC50 variant / IC50 VEGF(1-109)) (KDR (1-3) monomer [1]): 21 fold
fold reduction in binding (IC50 variant / IC50 VEGF(1-109)) (Flt-1 (1-3) monomer): 3 fold
B17: Ile 43* (ligand)
chain: B1 chain with I43A

IC50 (KDR (1-3) monomer [2]): 0.5 nM
Relative Binding Affinity (ratio to native VEGF (8-109)) (KDR (1-3) monomer [2]): 0.5 fold
B18: LK-VRB-14s (ligand, human, UniProt P15692-4 27-135, looked up)
chain: B1 chain with Y21L, Q22R, D63S, G65M, L66R

fold reduction in binding (IC50 variant / IC50 VEGF(1-109)) (KDR (1-3) monomer [1]): 89 fold
fold reduction in binding (IC50 variant / IC50 VEGF(1-109)) (Flt-1 (1-3) monomer): 7 fold
B19: Ile 83* (ligand)
chain: B1 chain with I83A

fold reduction in binding (IC50 variant / IC50 VEGF(1-109)) (KDR (1-3) monomer [1]): 1 fold
fold reduction in binding (IC50 variant / IC50 VEGF(1-109)) (Flt-1 (1-3) monomer): 1 fold
B20: Lys 48** (ligand)
chain: B1 chain with K48A

fold reduction in binding (IC50 variant / IC50 VEGF(1-109)) (KDR (1-3) monomer [1]): 1 fold
fold reduction in binding (IC50 variant / IC50 VEGF(1-109)) (Flt-1 (1-3) monomer): 8 fold
B21: Asp 63** (ligand)
chain: B1 chain with D63A

IC50 (KDR (1-3) monomer [2]): 11 nM
Relative Binding Affinity (ratio to native VEGF (8-109)) (KDR (1-3) monomer [2]): 11 fold
B22: LK-VRB-23s (ligand, human, UniProt P15692-4 27-135, looked up)
chain: B1 chain with M18E, Y21L, Q22R, Y25S, L66R

IC50 (KDR (1-3) monomer [2]): 2 nM
Relative Binding Affinity (ratio to native VEGF (8-109)) (KDR (1-3) monomer [2]): 2 fold
B23: LK-VRB-15s (ligand, human, UniProt P15692-4 27-135, looked up)
chain: B1 chain with Y21L, Y25S, D63S, G65M, L66R

fold reduction in binding (IC50 variant / IC50 VEGF(1-109)) (KDR (1-3) monomer [1]): 1 fold
fold reduction in binding (IC50 variant / IC50 VEGF(1-109)) (Flt-1 (1-3) monomer): 1 fold
B24: Gln 89 (ligand)
chain: B1 chain with Q89A

fold reduction in binding (IC50 variant / IC50 VEGF(1-109)) (KDR (1-3) monomer [1]): 55 fold
fold reduction in binding (IC50 variant / IC50 VEGF(1-109)) (Flt-1 (1-3) monomer): 3 fold
B25: Gln 79* (ligand)
chain: B1 chain with Q79A

IC50 (KDR (1-3) monomer [2]): 23 nM
Relative Binding Affinity (ratio to native VEGF (8-109)) (KDR (1-3) monomer [2]): 23 fold
B26: LK-VRB-26s (ligand, human, UniProt P15692-4 27-135, looked up)
chain: B1 chain with M18E, Y21L, Q22R, Y25S, G65M, L66R

IC50 (KDR (1-3) monomer [2]): 2 nM
Relative Binding Affinity (ratio to native VEGF (8-109)) (KDR (1-3) monomer [2]): 2 fold
B27: LK-VRB-20s (ligand, human, UniProt P15692-4 27-135, looked up)
chain: B1 chain with Y21L, Q22R, Y25S, D63S, G65M, L66R

fold reduction in binding (IC50 variant / IC50 VEGF(1-109)) (KDR (1-3) monomer [1]): 9 fold
fold reduction in binding (IC50 variant / IC50 VEGF(1-109)) (Flt-1 (1-3) monomer): 5 fold
B28: Met 81** (ligand)
chain: B1 chain with M81A

IC50 (KDR (1-3) monomer [2]): 3 nM
Relative Binding Affinity (ratio to native VEGF (8-109)) (KDR (1-3) monomer [2]): 3 fold
B29: LK-VRB-21s (ligand, human, UniProt P15692-4 27-135, looked up)
chain: B1 chain with M18E, Y21L, Q22R, Y25S, D63S

fold reduction in binding (IC50 variant / IC50 VEGF(1-109)) (KDR (1-3) monomer [1]): 1 fold
fold reduction in binding (IC50 variant / IC50 VEGF(1-109)) (Flt-1 (1-3) monomer): 1 fold
B30: Lys 16 (ligand)
chain: B1 chain with K16A

IC50 (KDR (1-3) monomer [2]): 2 nM
Relative Binding Affinity (ratio to native VEGF (8-109)) (KDR (1-3) monomer [2]): 2 fold
B31: LK-VRB-11s (ligand, human, UniProt P15692-4 27-135, looked up)
chain: B1 chain with M18E, Y21L, D63S, G65M, L66R

IC50 (KDR (1-3) monomer [2]): 4 nM
Relative Binding Affinity (ratio to native VEGF (8-109)) (KDR (1-3) monomer [2]): 4 fold
B32: LK-VRB-25s (ligand, human, UniProt P15692-4 27-135, looked up)
chain: B1 chain with M18E, Y21L, Q22R, Y25S, D63S, L66R

IC50 (KDR (1-3) monomer [2]): 0.5 nM
Relative Binding Affinity (ratio to native VEGF (8-109)) (KDR (1-3) monomer [2]): 0.5 fold
B33: LK-VRB-10s (ligand, human, UniProt P15692-4 27-135, looked up)
chain: B1 chain with Y25S, D63S, G65M, L66R

fold reduction in binding (IC50 variant / IC50 VEGF(1-109)) (KDR (1-3) monomer [1]): 1 fold
fold reduction in binding (IC50 variant / IC50 VEGF(1-109)) (Flt-1 (1-3) monomer): 1 fold
B34: Arg 105 (ligand)
chain: B1 chain with R105A

IC50 (KDR (1-3) monomer [2]): 14 nM
Relative Binding Affinity (ratio to native VEGF (8-109)) (KDR (1-3) monomer [2]): 14 fold
B35: LK-VRB-13s (ligand, human, UniProt P15692-4 27-135, looked up)
chain: B1 chain with M18E, Y25S, D63S, G65M, L66R

fold reduction in binding (IC50 variant / IC50 VEGF(1-109)) (KDR (1-3) monomer [1]): 10 fold
fold reduction in binding (IC50 variant / IC50 VEGF(1-109)) (Flt-1 (1-3) monomer): 5 fold
B36: Glu 64* (ligand)
chain: B1 chain with E64A

fold reduction in binding (IC50 variant / IC50 VEGF(1-109)) (KDR (1-3) monomer [1]): 6 fold
fold reduction in binding (IC50 variant / IC50 VEGF(1-109)) (Flt-1 (1-3) monomer): 15 fold
B37: Gln 22** (ligand)
chain: B1 chain with Q22A

IC50 (KDR (1-3) monomer [2]): 3 nM
Relative Binding Affinity (ratio to native VEGF (8-109)) (KDR (1-3) monomer [2]): 3 fold
B38: LK-VRB-17s (ligand, human, UniProt P15692-4 27-135, looked up)
chain: B1 chain with M18E, Y21L, Q22R, D63S, G65M, L66R
